Data as given in US20250051802.

System: SluCas9
Assay: cell_activity
Settings: amplicon sequencing, HEK 293T

Sequence: CCAUUCCCUCUUUAGCCAGAG / CCATTCCCTCTTTAGCCAGAGCGGGGT / ACCCCGCTCTGGCTAAAGAGGGAATGG [pBLR194 guide spacer ; pBLR194 target with PAM]
- activity (PAM NNGG (CGGGGT)): 65.7%

Sequence: GGCCGGCGGCGGACAGUGGAC / GGCCGGCGGCGGACAGTGGACGCGGCGGC / GCCGCCGCGTCCACTGTCCGCCGCCGGCC [pBLR179 guide spacer ; pBLR179 target with PAM]
- activity (PAM NNGG (GCGGCGGC)): 72.8%

Sequence: UGCCCUGUGGGGCAAGGUGAA / TGCCCTGTGGGGCAAGGTGAAGTGGAT / ATCCACTTCACCTTGCCCCACAGGGCA [pBLR197 guide spacer ; pBLR197 target with PAM]
- activity (PAM NNGG (GTGGAT)): 1.9%
